B1: TSPAN10 (parent)
chain: EGCGPPLRRWLRANLAASGGYAIA

Variants of: B1
Assay: protein stability index of a GFP-peptide fusion (GPS, HEK-293T) (PSI 1-6); higher = more stable
Details: c terminus: a fixed tail appended
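Further: lentivirally expressed fusions sorted by FACS into six bins by GFP to DsRed ratio, PSI derived from sequencing read proportions per bin multiplied by bin number.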

Row | Variant | protein stability index
1 | P5V | 2.15
2 | P5E | 3.75
3 | P5K | 2.03
4 | P5Q | 1.79
5 | P5F | 2.73
6 | P5Y | 1.6
7 | P5C | 3.5
8 | P5S | 1.44
9 | P5R | 2.48
10 | P5N | 2.02
11 | P5D | 2.38
12 | P5T | 2.05
13 | P5A | 2.08
14 | P5M | 1.65
15 | P5G | 2.08
16 | P5H | 1.7
17 | G20N | 3.44
18 | G20Y | 1.66
19 | G20S | 2.17
20 | G20R | 1.48
21 | G20V | 2.21
22 | G20H | 2.03
23 | G20L | 1.96
24 | G20Q | 2.53

Row | Variant | protein stability index
25 | G20A | 1.94
26 | G20E | 2.33
27 | G20M | 1.84
28 | G20F | 1.96
29 | G20P | 2
30 | G20I | 1.49
31 | G20D | 2.25
32 | G20T | 1.63
33 | G20C | 1.56
34 | G20K | 2.77
35 | G20W | 1.84
36 | A17D | 2.71
37 | A17I | 2.67
38 | A17L | 1.63
39 | A17S | 1.84
40 | A17P | 1.81
41 | A17W | 2.03
42 | A17C | 1.39
43 | A17G | 1.59
44 | A17Q | 2.79
45 | A17R | 1.44
46 | A17V | 1.4
47 | A17F | 1.35
48 | A17Y | 1.97

Row | Variant | protein stability index
49 | A17H | 2
50 | A17E | 2.63
51 | A17T | 1.4
52 | A17K | 1.7
53 | A17M | 2.2
54 | A17N | 2.96
55 | C3D | 2.37
56 | C3T | 1.7
57 | C3G | 2.11
58 | C3K | 1.93
59 | C3R | 1.4
60 | C3Q | 3.09
61 | C3F | 1.61
62 | C3A | 2.3
63 | C3P | 2.25
64 | C3S | 2.45
65 | C3L | 2.65
66 | C3M | 1.78
67 | C3E | 2.82
68 | C3I | 2.83
69 | C3H | 2.62
70 | C3V | 1.76
71 | C3W | 1.72
72 | A13M | 1.4

Row | Variant | protein stability index
73 | A13Y | 1.66
74 | A13P | 2.87
75 | A13R | 1.62
76 | A13S | 2.58
77 | A13G | 3.35
78 | A13V | 1.75
79 | A13D | 1.83
80 | A13H | 2.26
81 | A13W | 2.03
82 | A13C | 2.93
83 | A13E | 3.18
84 | A13K | 2.95
85 | A13L | 2.21
86 | A13Q | 2.83
87 | A13F | 2.46
88 | A13N | 2.19
89 | A13T | 2.25
90 | A13I | 1.67
91 | R12G | 1.82
92 | R12Q | 2.17
93 | R12F | 2.29
94 | R12W | 3.67
95 | R12T | 1.82
96 | R12L | 3.2

Row | Variant | protein stability index
97 | R12E | 2.23
98 | R12S | 2.58
99 | R12C | 2.17
100 | R12K | 2.92
101 | R12H | 2.47
102 | R12D | 1.8
103 | R12Y | 2.84
104 | R12A | 1.75
105 | R12P | 2.5
106 | R12N | 1.73
107 | R12M | 1.9
108 | R12I | 2.82
109 | P6V | 1.89
110 | P6M | 1.84
111 | P6S | 1.72
112 | P6T | 2.46
113 | P6L | 1.03
114 | P6N | 2.29
115 | P6D | 1.94
116 | P6E | 1.48
117 | P6Q | 1.89
118 | P6G | 1.86
119 | P6K | 1.97
120 | P6W | 1.5

Row | Variant | protein stability index
121 | P6A | 2.2
122 | P6H | 1.62
123 | P6Y | 1.62
124 | P6R | 1.95
125 | R8D | 1.47
126 | R8W | 1.31
127 | R8M | 2.16
128 | R8N | 1.83
129 | R8I | 2.1
130 | R8P | 1.46
131 | R8H | 1.58
132 | R8V | 2.7
133 | R8A | 1.04
134 | R8Q | 2.05
135 | R8E | 1.26
136 | R8L | 1.37
137 | R8S | 1.7
138 | R8T | 1.71
139 | R8K | 1.85
140 | R8C | 1.53
141 | R8G | 1.71
142 | R8F | 1.3
143 | S18D | 2.71
144 | S18K | 1.61

Row | Variant | protein stability index
145 | S18C | 2.15
146 | S18N | 2.01
147 | S18T | 2.34
148 | S18V | 2.16
149 | S18E | 1.75
150 | S18Q | 2.04
151 | S18F | 2.57
152 | S18I | 1.44
153 | S18A | 1.97
154 | S18R | 1.8
155 | S18Y | 1.4
156 | S18G | 1.98
157 | S18P | 2.28
158 | S18M | 1.6
159 | S18L | 2.19
160 | S18H | 1.87
161 | S18W | 2.06
162 | Y21A | 2.65
163 | Y21F | 1.85
164 | Y21D | 2.61
165 | Y21C | 2.36
166 | Y21E | 2.4
167 | A16P | 1.78

Source: the supplement of paper PMC10567573
